Consider one molecule from article doi:10.1101/312850 (bioRxiv, 2018).

This experiment deals with T1, E. coli methionine aminopeptidase (MetAP), type-1a, N-terminal poly-His-tagged (E. coli, UniProt P0AE18 1-264).
T1 sequence (looked up): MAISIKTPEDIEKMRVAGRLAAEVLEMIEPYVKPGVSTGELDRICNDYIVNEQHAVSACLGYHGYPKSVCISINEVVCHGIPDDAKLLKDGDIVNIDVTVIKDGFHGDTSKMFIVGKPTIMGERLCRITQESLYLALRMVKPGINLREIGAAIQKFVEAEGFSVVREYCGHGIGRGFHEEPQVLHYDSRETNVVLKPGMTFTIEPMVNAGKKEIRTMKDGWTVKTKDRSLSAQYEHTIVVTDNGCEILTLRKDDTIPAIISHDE
As to the kind of experiment: cryo-EM structure.

B1: E. coli peptide deformylase (PDF), N-terminal His6-tagged (enzyme, UniProt P0A6K3 1-169, looked up)
chain: MSVLQVLHIPDERLRKVAKPVEEVNAEIQRIVDDMFETMYAEEGIGLAATQVDIHQRIIVIDVSENRDERLVLINPELLEKSGETGIEEGCLSIPEQRALVPRAEKVKIRALDRDGKPFELEADGLLAICIQHEMDHLVGKLFMDYLSPLKQQRIRQKVEKLDRLKARA
With B1, the binding result is listed as “binds”.
